Laboratory results: patent US7572600B2, “Enzymatic activities in chemokine-mediated inflammation” (Chemocentryx, Inc., priority 2004, dated 2009)
One block for each molecule: values may come before it.

Assays:
CCR9 = biological target: T1, CCR9 (Homo sapiens, UniProt P51686); test: Calcium mobilization in Molt4 cells; type: cell-based; conditions: digestions at 1 nM, all proteases and fluids tested
T1 construct: endogenous in cells; host or cells: Molt4 cells (per the assay name)
T1 sequence (P51686 1-369): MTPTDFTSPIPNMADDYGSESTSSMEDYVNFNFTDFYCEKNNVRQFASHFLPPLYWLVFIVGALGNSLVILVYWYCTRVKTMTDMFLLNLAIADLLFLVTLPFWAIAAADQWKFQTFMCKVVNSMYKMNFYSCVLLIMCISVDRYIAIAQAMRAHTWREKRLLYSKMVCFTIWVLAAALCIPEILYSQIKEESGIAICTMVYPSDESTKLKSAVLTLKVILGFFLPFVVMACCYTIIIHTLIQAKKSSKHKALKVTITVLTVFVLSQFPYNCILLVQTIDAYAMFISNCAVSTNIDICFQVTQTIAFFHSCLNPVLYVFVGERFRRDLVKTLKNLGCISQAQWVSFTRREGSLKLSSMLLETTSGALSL
Experimental: (§1) Calcium Mobilization Assay. Cells were loaded for 1 hour with 2 μM indo-1/AM dye (Molecular Probes, Eugene, Oreg.) in culture medium, then washed with 10 ml PBS and resuspended at 10^6/ml in HBSS containing 1% FBS. Cytosolic calcium responses were determined using a Photon Technology International (Lawrenceville, N.J.) fluorimeter, with excitation at 350 nm and dual emission at 400 and 490 nm. Alternatively, cells were loaded with 5 μg/ml Fluo-4 AM dye (Molecular Probes, Eugene, Oreg.), then washed and analyzed on a Fluorometric Imaging Plate Reader 384 (FLIPR^384 Molecular Devices, Sunnyvale, Calif.), with 505 nm excitation and 530 nm emission.

human monocytes [1] = test: Calcium mobilization in freshly isolated human monocytes; type: cell-based
Experimental: as §1
(§2) Receptor signaling assay. For individual measurements, cells were loaded for 45 min at room temperature with 2 μM indo-1/AM (Invitrogen, Carlsbad Calif.) in culture medium, then washed with 10 ml PBS and resuspended at 10^6 cells/ml in HBSS containing 0.1% BSA. Cytosolic calcium levels were determined using a Photon Technology International fluorimeter (excitation at 350 nm, ratio of dual emission at 400 and 490 nm). For measuring calcium dose responses, cells were analyzed with a Fluorometric Imaging Plate Reader 384 (FLIPR^384) (Molecular Devices, Sunnyvale, Calif.). Cells were loaded for 1 hr at 37° C. with 5 μM fluo-4 in HBSS with 0.1% BSA, then washed, transferred to black-wall 96-well plates, and subsequently excited at 505 nm with emission recorded at 530 nm with a standard protocol provided by the manufacture. Cells were stimulated with agonists 20 s after the monitoring of fluorescence began. Data were analyzed and plotted in arbitrary units of fluorescence using Prism. To ensure that responses were specific to FPRL1, we utilized a selective small-molecule antagonist of human FPRL1, generated by ChemoCentryx, which was optimized from a high throughput compound library screening approach.

human monocytes [2] = test: Chemotaxis of human monocytes; type: cell-based
Experimental: (§3) Chemotaxis assay. L1.2-CCR1 transfectants, THP-1 cells, human monocytes and human neutrophils were collected by centrifugation and resuspended in HBSS containing 0.1% BSA. Chemotaxis assays were performed in 96-well ChemoTx® microplates (Neuroprobe, Rockville, Md.) as follows. Chemokines were added to the lower wells (final volume 29 μL), and 20 μL of cell suspension (5×10^6 cells/mL) was added to the polycarbonate filter (3 μm pore size for neutrophils, 5 μm for other 3 cell types). After incubation at 37° C. in the presence of 5% CO2 for 1 hr (neutrophils), 90 min (monocytes) or 2 h (THP-1 and L1.2-CCR1), cells were removed from the upper surface of the filter by scraping. Cells that migrated into the lower chamber were quantified by using the CyQuant cell proliferation assay kit (Molecular Probes, Eugene, Oreg.) and analyzed with a Tecan (Durham, N.C.) fluorimeter (excitation at 480 nm, emission at 530 nm). Data were analyzed and plotted in arbitrary units of fluorescence using Prism (GraphPad Software, San Diego, Calif.).
(§4) Chemotaxis assays. L1.2-CCR1 and L1.2-FPRL1 transfectants, monocytes and neutrophils were collected by centrifugation and resuspended in HBSS with 0.1% BSA. The assays were performed in 96-well ChemoTx® microplates (Neuroprobe, Rockville, Md.). Chemokines were diluted in HBSS with 0.1% BSA and added to the lower wells (final volume 29 μL), then 20 μL of cell suspension (5×10^6 cells/mL for monocytes; 2.5×10^6 cells/mL for neutrophils) were added to the polycarbonate filters (5 μm pore size for monocytes and FPRL1 transfectants; 3 μm pore size for neutrophils). After incubation for 90 min (37° C., 100% humidity, 5% CO2), the filters were removed and the cells that migrated into the lower chamber were quantified by using the CyQuant cell proliferation assay kit (Molecular Probes, Oreg.).

human neutrophils = test: Chemotaxis of human neutrophils; type: cell-based
Experimental: as §3, §4

CCR1 [3] = biological target: T2, CCR1 (Homo sapiens, UniProt P32246); test: Competition binding with 125I-MIP-1α on human monocytes; set-up: endogenous in cells; host or cells: human CD14+ monocytes from buffy coats
T2 sequence (P32246 1-355): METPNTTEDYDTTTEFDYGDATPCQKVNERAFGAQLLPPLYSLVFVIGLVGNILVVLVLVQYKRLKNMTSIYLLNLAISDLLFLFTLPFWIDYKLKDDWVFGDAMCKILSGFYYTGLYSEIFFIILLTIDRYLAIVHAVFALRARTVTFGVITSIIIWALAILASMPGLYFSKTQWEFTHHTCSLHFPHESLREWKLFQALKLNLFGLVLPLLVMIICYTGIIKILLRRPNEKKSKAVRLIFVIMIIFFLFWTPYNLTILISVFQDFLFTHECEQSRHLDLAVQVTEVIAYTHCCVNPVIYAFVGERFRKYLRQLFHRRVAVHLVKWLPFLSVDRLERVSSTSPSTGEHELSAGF
Experimental: Binding assay. Competition binding studies were conducted using monocytes, L1.2-CCR1 or L1.2-FPRL1 cells. Cells were incubated for 3 hr at 4° C. with ^125I-MIP-1α (final concentration ˜0.05 nM) or ^125I-WKYMVm (final concentration ˜0.01 nM) in buffer (25 mM HEPES, 140 mM NaCl, 1 mM CaCl2, 5 mM MgCl2 and 0.2% BSA, adjusted to pH 7.1) in the presence of increasing amounts of unlabeled chemokine. Reactions were aspirated onto PEI-treated GF/B glass filters using a cell harvester (Packard). Filters were washed twice (25 mM HEPES, 500 mM NaCl, 1 mM CaCl2, 5 mM MgCl2, adjusted to pH 7.1). Scintillant (MicroScint-10; 35 μl) was added to the filters and counted in a Packard Topcount scintillation counter. Data were analyzed and plotted using Prism (GraphPad Software, San Diego, Calif.).

CCR1 [4] = biological target: T2, CCR1; test: Calcium mobilization in murine L1.2 cells expressing human CCR1; type: cell-based; set-up: expressed in transfected cells; host or cells: murine L1.2 cells (G-418 selected transfectant); conditions: for calcium mobilization: L1.2-CCR1 cells
Experimental: as §1, §2

L1.2-CCR1 cells = biological target: T3, L1.2-CCR1 cells (Homo sapiens, UniProt P32246); test: L1.2-CCR1 chemotaxis assay; type: cell-based; conditions: three-point titrations 0.5, 5, 50 nM, 2 hr
T3 construct: expressed in transfected cells; host or cells: murine L1.2 cells (G-418 selected transfectant)
T3 sequence (P32246 1-355): T2 sequence (P32246 1-355)
Experimental: as §3

[5] = tested on: monocyte-derived dendritic cells; test: Calcium mobilization in monocyte-derived dendritic cells; type: cell-based, human; conditions: immature DC; after digestion with chymase, cathepsin G, elastase, synovial fluid or PMN sup #1
Experimental: Human monocytes were obtained from buffy coats purchased from the Stanford Blood Bank (Palo Alto, Calif.) by sedimentation on Ficoll-Paque (Amersham, Piscataway, N.J.) and selection with anti-CD14 magnetic beads (Miltenyi, Auburn, Calif.) according to the manufacturers' instructions. For generation of dendritic cells, monocytes were cultured for 6 days in RPMI-1640 medium containing 10% FBS (HyClone, Logan, Utah). On days 0, 2 and 4, GM-CSF and IL-4 (both purchased from R&D Systems, Minneapolis, Minn.) were added to the cultures at 1000 WHO unit/ml each. The cells were confirmed to be CD14^−CD1a^+ immature DC by FACS staining on day 6.
as §1
Immature and mature DC preparation. Immature DCs were derived by culturing CD14+ monocytes in T-175 cultured flasks at a density of 10^6 cells/ml in RPMI supplemented with 10% FBS. Recombinant human cytokines GM-CSF and IL-4 (final concentration 1000 and 500 U/ml, respectively) were added on day 0, 2, 4 and 6. Cells were harvested on day 6 as immature DCs and characterized for surface marker expression by flow cytometry. DC maturation was carried out by culturing day-6 immature DCs in RPMI-10% FBS supplemented with GM-CSF, IL-4 and 50 μg/ml polyIC (Sigma, St. Louis Mo.). After two more days of culture, cells were harvested as mature DCs and characterized by surface marker expression by flow cytometry.
as §2

[6] = undigested chemokine or peptide, 100 nM (CCL23β up to 250 nM)
[7] = 10 nM input chemokine, after digestion with proteases and fluids
[8] = 10 nM, undigested or recombinant chemokine

B3: CCL9/MIP-1γ: recombinant murine C6* chemokine (protein, listed as Homo sapiens)
chain: QITHATETKEVQSSLKAQQGLEIEMFHMGFQDSSDCCLSYNSRIQCSRFIGYFPTSGGCTRPGIIFISKRGFQVCANPSDRRVQRCIERLEQNSQPRTYKQ
chemotaxis potency of truncated forms versus full-length chemokine (L1.2-CCR1 cells): greater potency | calcium mobilization (CCR1 [4]; [7]): uniformly active | calcium mobilization (CCR1 [4]; [8]): either not active or weakly active

B4: CCL6/C10: recombinant murine C6* chemokine (protein, listed as Homo sapiens)
chain: GLIQEMEKEDRRYNPPIIHQGFQDTSSDCCFSYATQIPCKRFIYYFPTSGGCIKPGIIFISRRGTQVCADPSDRRVQRCLSTLKQGPRSGNKVIA
calcium mobilization (human monocytes [1]; 100 nM after digestion with chymase, cathepsin G, elastase or synovial fluid): mobilized calcium | calcium mobilization (human monocytes [1]; [6]): unable to induce calcium mobilization | chemotaxis (human monocytes [2]; 200 nM after digestion with chymase, cathepsin G or elastase): stimulated chemotaxis | concentration with the most migration (human monocytes [2]; after digestion with synovial fluid #1): 2 nM | calcium mobilization versus full-length chemokine [5]: more efficacious | chemotaxis potency of truncated forms versus full-length chemokine (L1.2-CCR1 cells): greater potency | calcium mobilization (CCR1 [4]; [7]): uniformly active | calcium mobilization (CCR1 [4]; [8]): either not active or weakly active

Second part, led by results:

signaling through CCR9 after digestion (CCR9): inactivated
B1: CCL25/TECK: non-C6* β-chemokine signaling through CCR9 (protein, UniProt O15444 24-150, looked up)
C-C motif chemokine 25: QGVFEDCCLAYHYPIGWAVLRRAWTYRIQEVSGSCNLPAAIFYLPKRHRKVCGNPKSREVQRAMKLLDARNKVFAKLHHNTQTFQAGPHAVKKLSSGNSKLSSSKFSNPISSSKRNVSLLISANSGL

inhibition of 125I-MIP-1α binding (CCR1 [3]): most potent competitor
B2: CCL23Δ24/MPIF-1: Recombinant CCL23/CKβ8 lacking the N-terminal 24 residues (46-120) (protein)
chain: RFHATSADCCISYTPRSIPCSLLESYFETNSECSKPGVIFLTKKGRRFCANPSDKQVQVCMRMLKLDTRIKTRKN
calcium mobilization (human monocytes [1]; [6]): strong calcium responses | chemotaxis (human monocytes [2]; undigested): moderately strong chemoattraction | chemotaxis (human neutrophils): unable to induce migration | calcium mobilization in the CCR1 transfectant (CCR1 [4]; L1.2 cells stably expressing human CCR1): effective at inducing calcium mobilization
